In patent US20080199426:

Tested on: Hirudin (Calbiochem 377853)

thrombin activated from 10% human plasma on HUVEC monolayers
cleavage of the chromogenic thrombin substrate (absorbance at 405 nm): completely blocked the cleavage of the chromogenic thrombin substrate
